Columns and labels:
[1] = molecular target: T1, human TROP-2 on the surface of human cell lines (the AR52A301.5 antigen) (human, UniProt P09758 27-323); test: flow cytometry, 20 micrograms/mL antibody, HT-29 colon cancer cells
T1 construct: whole, on cells; The cell lines are not transfected; also called IDAC 141205-03 antigen; TROP-2 antigenic moiety
T1 sequence (looked up): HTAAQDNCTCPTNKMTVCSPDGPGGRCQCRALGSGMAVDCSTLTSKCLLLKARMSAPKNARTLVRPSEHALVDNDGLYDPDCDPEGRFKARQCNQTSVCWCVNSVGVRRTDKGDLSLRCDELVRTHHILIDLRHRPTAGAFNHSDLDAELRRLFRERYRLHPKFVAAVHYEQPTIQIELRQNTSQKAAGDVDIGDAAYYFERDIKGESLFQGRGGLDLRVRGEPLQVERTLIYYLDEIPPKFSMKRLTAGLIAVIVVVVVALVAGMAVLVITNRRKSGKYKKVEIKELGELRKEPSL
Procedure: (§1) Cells were prepared for FACS by initially washing the cell monolayer with DPBS (without Ca⁺⁺ and Mg⁺⁺). Cell dissociation buffer (INVITROGEN, Burlington, ON) was then used to dislodge the cells from their cell culture plates at 37° C. After centrifugation and collection, the cells were resuspended in DPBS containing MgCl₂, CaCl₂ and 2 percent fetal bovine serum at 4° C. […] Flow cytometric acquisition of the cells was assessed by running samples on a FACSarray™ using the FACSarray™ System Software (BD Biosciences, Oakville, ON). The forward (FSC) and side scatter (SSC) of the cells were set by adjusting the voltage and amplitude gains on the FSC and SSC detectors.

[2] = molecular target: T1, human TROP-2 on the surface of human …; test: flow cytometry, 20 micrograms/mL antibody, T.Tn esophageal cancer cells
Procedure: as §1

[3] = molecular target: T1, human TROP-2 on the surface of human …; test: flow cytometry, 20 micrograms/mL antibody, DLD-1 colon cancer cells
Procedure: as §1

[4] = molecular target: T1, human TROP-2 on the surface of human …; test: flow cytometry, 20 micrograms/mL antibody, BxPC-3 pancreatic cancer cells
Procedure: as §1

[5] = molecular target: T1, human TROP-2 on the surface of human …; test: flow cytometry, 20 micrograms/mL antibody, C-13 ovarian cancer cells
Procedure: as §1

[6] = molecular target: T1, human TROP-2 on the surface of human …; test: flow cytometry, 20 micrograms/mL antibody, FaDu head and neck cancer cells
Procedure: (§2) All cell lines, except for the majority of ovarian cancer cell lines, were obtained from the American Type Tissue Collection (ATCC, Manassas, Va.).
as §1

[7] = molecular target: T1, human TROP-2 on the surface of human …; test: cell-based or functional assay
[8] = molecular target: T1, human TROP-2 on the surface of human …; test: flow cytometry, 20 micrograms/mL antibody, Colo-205 colon cancer cells
Procedure: as §1

[9] = molecular target: T1, human TROP-2 on the surface of human …; test: flow cytometry, 20 micrograms/mL antibody, OVCA-429 ovarian cancer cells
Procedure: as §2, §1

[10] = molecular target: T1, human TROP-2 on the surface of human …; test: flow cytometry, 20 micrograms/mL antibody, PL45 pancreatic cancer cells
Procedure: as §2, §1

[11] = molecular target: T1, human TROP-2 on the surface of human …; test: flow cytometry, 20 micrograms/mL antibody, OVCAR-3 ovarian cancer cells (printed twice in the paragraph, once as OVAR-3)
Procedure: as §2, §1

[12] = molecular target: T1, human TROP-2 on the surface of human …; test: flow cytometry, 20 micrograms/mL antibody, MDA-MB-468 breast cancer cells
Procedure: as §1

[13] = molecular target: T1, human TROP-2 on the surface of human …; test: flow cytometry, 20 micrograms/mL antibody, MCF-7 breast cancer cells
Procedure: as §2, §1

[14] = molecular target: T1, human TROP-2 on the surface of human …; test: flow cytometry, 20 micrograms/mL antibody, Hs888.Lu non-cancer lung cells (weaker binding)
Procedure: as §1

[15] = molecular target: T1, human TROP-2 on the surface of human …; test: flow cytometry, 20 micrograms/mL antibody, DU-145 prostate cancer cells
Procedure: as §1

[16] = molecular target: T1, human TROP-2 on the surface of human …; test: flow cytometry, 20 micrograms/mL antibody, OCC-1 ovarian cancer cells
Procedure: as §2, §1

[17] = molecular target: T1, human TROP-2 on the surface of human …; test: flow cytometry, 20 micrograms/mL antibody, Hey ovarian cancer cells
Procedure: as §1

[18] = molecular target: T1, human TROP-2 on the surface of human …; test: flow cytometry, 20 micrograms/mL antibody, NCI-H520 lung cancer cells (weaker binding)
Procedure: as §2, §1

[19] = molecular target: T1, human TROP-2 on the surface of human …; test: flow cytometry, 20 micrograms/mL antibody, PC-3 prostate cancer cells
Procedure: as §2, §1

[20] = molecular target: T1, human TROP-2 on the surface of human …; test: flow cytometry, 20 micrograms/mL antibody, OV2008 ovarian cancer cells
Procedure: as §2, §1

B1: AR52A301.5 monoclonal antibody (hybridoma IDAC 141205-03) (antibody, mouse IgG1, V domains shown)
VH: EVQLQQSGPELVKPGASVKISCKASGYTFTDYNMHWVKQSHGKSLEWIGYIYPYNGGTGYNQRFKNKATLTVDISSSTAYMELRSLTSEDSAVYYCAREEDYYGFDYWGQGTTLTVSS
VL: DVVMTQTPLSLPVSLGQDASISCRSSQSLVHSYGNTYLHWYLQKPGQSPKLLIYKVSNRFSGVPDRFSGSGSGTDFTLKISRVEAEDMGVYFCSQSTHVYTFGGGTKLEIK
notes: Murine IgG1, kappa from the hybridoma; also called IDAC 141205-03 antibody
[1]
  mean fluorescence intensity fold increase above isotype control: 6.7 fold
[2]
  mean fluorescence intensity fold increase above isotype control: 18.6 fold
[3]
  mean fluorescence intensity fold increase above isotype control: 82.8 fold
[4]
  mean fluorescence intensity fold increase above isotype control: 29.4 fold
[5]
  mean fluorescence intensity fold increase above isotype control: 38.7 fold
[6]
  mean fluorescence intensity fold increase above isotype control: 59.8 fold
[7]
  cytotoxicity on OVCAR-3 cells relative to the positive control cycloheximide: 53 percent
[8]
  mean fluorescence intensity fold increase above isotype control: 38.6 fold
[9]
  mean fluorescence intensity fold increase above isotype control: 3.4 fold
[10]
  mean fluorescence intensity fold increase above isotype control: 12.9 fold
[11]
  mean fluorescence intensity fold increase above isotype control: 22.1 fold
[12]
  mean fluorescence intensity fold increase above isotype control: 22.7 fold
[13]
  mean fluorescence intensity fold increase above isotype control: 16 fold
[14]
  mean fluorescence intensity fold increase above isotype control: 2.6 fold
[15]
  mean fluorescence intensity fold increase above isotype control: 3.9 fold
[16]
  mean fluorescence intensity fold increase above isotype control: 17.8 fold
[17]
  mean fluorescence intensity fold increase above isotype control: 5.9 fold
[18]
  mean fluorescence intensity fold increase above isotype control: 2.1 fold
[19]
  mean fluorescence intensity fold increase above isotype control: 5 fold
[20]
  mean fluorescence intensity fold increase above isotype control: 32.7 fold
